From publication PMC5760710, “The evolution of substrate discrimination in macrolide antibiotic resistance enzymes” (Nature Communications, 2018)
In brackets after ≈: the same amount, converted by molar mass.

Legend:
MphH = target: T1, MphH (Brachybacterium faecium, UniProt C7MEP1); test: X-ray crystal structure; format: binding
T1 construct: pMCSG53, N-terminal His6 tag and TEV site, crystallized

MphI = system: T2, MphI; test: PK/LDH-coupled continuous assay; format: biochemical, Paenibacillus sp. LC231; settings: 10 mM MgCl2, 40 mM KCl, pH 7.5
T2 construct: full-length, His-tagged in pET22b, expressed in E. coli BL21(DE3), Ni-NTA purified; primers span nt 1-927

[1] = system: T3, E. coli BW25113 ΔbamBΔtolC; test: microbe, parasite or virus in culture; settings: Escherichia coli, BW25113, 24 h; empty vector
T3 construct: BW25113 ΔbamBΔtolC empty vector pGDP4
Protocol: mphB was codon optimized, synthetized as a gBlock (IDT) and cloned into pET28a with an N-terminal histidine tag. The codon optimized mphB sequence is in Supplementary Table 17. mphI was previously cloned into pET22b[36]. pGDP4 is a derivative of pET28a with the multiple-cloning site under the control of the constitutive lac promoter. mphI was subcloned into pGDP4 using the XbaI and XhoI restriction sites. E. coli was routinely cultured on LB-Lennox (Bioshop) at 37 °C overnight, and either 100 µg mL^−1 ampicillin or 50 µg mL^−1 kanamycin was used for plasmid selection. E. coli TOP10 (Invitrogen) was used for routine cloning experiments and susceptibility testing of mphs cloned into pGDP4. E. coli BL21(DE3) (Stratagene, USA)was used for protein overexpression experiments. E. coli BW25113 ΔbamBΔtolC is an antibiotic hypersensitive, and was used for susceptibility testing of Mphs cloning into pGDP4. Antibiotic susceptibility testing was performed according to the Clinical and Laboratory Standards Institute guidelines[74] for determining minimal inhibitory concentration (MIC) in 96-well plates (Sarstedt, Germany) in duplicate. MIC values were reproducible. A saline suspension of OD600 of 0.1 was made from 2–3 colonies of a fresh overnight, and diluted 1:200 into Mueller-Hinton Broth (BD Biosciences). […] Susceptibility assays were performed at least two independent times.

MphB = target: T4, MphB (Escherichia coli, UniProt A0A0H3EUF3); test: biochemical; set-up: PK/LDH-coupled continuous assay of macrolide phosphorylation; steady-state kinetics, NADH absorbance
T4 construct: codon-optimized gene, N-terminal His tag in pET28a, expressed in E. coli BL21(DE3), Ni-NTA purified
Protocol: (§1) Steady-state kinetics for Mphs were measured using the continuous PK/LDH-coupled assay[27],[32],[36],[71]. Reactions were performed in 96-well plates (Nunc, Thermo Scientific) using Spectramax Plus384 (Molecular Devices) in duplicate. Individual reactions were 100 µL and contained 50 mM HEPES pH 7.5, 40 mM KCl, 10 mM MgCl2, 0.2 mM NADH, 3.5 mM PEP, and 4.8 U PK/LDH (pyruvate kinase/lactate dehydrogenase). […] For determining the Km for macrolides, GTP was maintained at 200 µM and macrolides were varied between 0.49 µM and 1000 µM. Enzyme efficiency varied considerably between substrates, and therefore some enzymes were used at different concentrations depending on the substrate in order to produce a linear range suitable for Km determination. These concentrations were as follows; MphB 140 nM (most substrates), MphB 36 nM (josamycin), MphI 45 nM (descladinose macrolides), MphI 1.44 µM (C3 cladinose macrolides), Azi_1.1 90 nM (all substrates), Ery_1 (all substrates), MphK 680 nM (all substrates), MphIS111R/T166E/P211L 90 nM (descladinose macrolides), MphIS111R/T166E/P211L 1.43 µM (C3 cladinose macrolides), MphIM40A/S111R/T166E 22 nM (descladinose macrolides), MphIM40A/S111R/T166E 430 nM (C3 cladinose macrolides), MphIS111R/T166E 22 nM (descladinose macrolides), MphIS111R/T166E 1.43 µM (C3 cladinose macrolides). Enzyme kinetics experiments were performed at least two independent times. Steady-state kinetics of Mphs

[2] = system: CC[C@H]1OC(=O)[C@H](C)C(=O)[C@H](C)[C@@H](O[C@@H]2O[C@H](C)C[C@H](N(C)C)[C@H]2O)[C@](C)(OC)C[C@@H](C)C(=O)[C@H](C)[C@H]2N(CCCCn3cnc(-c4cccnc4)c3)C(=O)O[C@]12C; test: PK/LDH-coupled continuous assay; format: biochemical, Escherichia coli; settings: 200 uM GTP, 10 mM MgCl2, 40 mM KCl, pH 7.5
[3] = system: Nc1nc2c(ncn2[C@@H]2O[C@H](COP(=O)(O)OP(=O)(O)OP(=O)(O)O)[C@@H](O)[C@H]2O)c(=O)[nH]1; test: PK/LDH-coupled continuous assay; format: biochemical, Escherichia coli; settings: 100 uM telithromycin, 10 mM MgCl2, 40 mM KCl, pH 7.5
[4] = system: CC[C@H]1OC(=O)[C@H](C)[C@@H](O[C@H]2C[C@@](C)(OC)[C@@H](O)[C@H](C)O2)[C@H](C)[C@@H](O[C@@H]2O[C@H](C)C[C@H](N(C)C)[C@H]2O)[C@](C)(O)C[C@@H](C)CN(C)[C@H](C)[C@@H](O)[C@]1(C)O; test: PK/LDH-coupled continuous assay; format: biochemical, Escherichia coli; settings: 200 uM GTP, 10 mM MgCl2, 40 mM KCl, pH 7.5
[5] = system: CC[C@H]1OC(=O)[C@H](C)[C@@H](O[C@H]2C[C@@](C)(OC)[C@@H](O)[C@H](C)O2)[C@H](C)[C@@H](O[C@@H]2O[C@H](C)C[C@H](N(C)C)[C@H]2O)[C@](C)(O)C[C@@H](C)C(=O)[C@H](C)[C@@H](O)[C@]1(C)O; test: PK/LDH-coupled continuous assay; format: biochemical, Escherichia coli; settings: 200 uM GTP, 10 mM MgCl2, 40 mM KCl, pH 7.5
[6] = system: CC[C@H]1OC(=O)C[C@@H](O)[C@H](C)[C@@H](O[C@@H]2O[C@H](C)[C@@H](O[C@H]3C[C@@](C)(O)[C@@H](O)[C@H](C)O3)[C@H](N(C)C)[C@H]2O)[C@@H](CC=O)C[C@@H](C)C(=O)/C=C/C(C)=C/[C@@H]1CO[C@@H]1O[C@H](C)[C@@H](O)[C@@H](OC)[C@H]1OC; test: purified protein, by the assay type; set-up: continuous PK/LDH-coupled NADH kinase assay, steady-state Km, macrolide or GTP varied; settings: pH 7.5
Protocol: as §1, with “times.” for “times. Steady-state kinetics of Mphs”

[7] = system: CC[C@H]1OC(=O)[C@H](C)[C@@H](O[C@H]2C[C@@](C)(OC)[C@@H](O)[C@H](C)O2)[C@H](C)[C@@H](O[C@@H]2O[C@H](C)C[C@H](N(C)C)[C@H]2O)[C@](C)(O)C[C@@H](C)/C(=N\OCOCCOC)[C@H](C)[C@@H](O)[C@]1(C)O; test: purified protein, by the assay type; set-up: continuous PK/LDH-coupled NADH kinase assay, steady-state Km, macrolide or GTP varied; settings: pH 7.5
Protocol: as §1, with “times.” for “times. Steady-state kinetics of Mphs”

[8] = system: CC[C@H]1OC(=O)[C@H](C)C(=O)[C@H](C)[C@@H](O[C@@H]2O[C@H](C)C[C@H](N(C)C)[C@H]2O)[C@](C)(OC)C[C@@H](C)C(=O)[C@H](C)[C@H]2N(CCCCn3cnc(-c4cccnc4)c3)C(=O)O[C@]12C; test: PK/LDH-coupled continuous assay; format: biochemical, Bacillus subtilis; settings: 200 uM GTP, 10 mM MgCl2, 40 mM KCl, pH 7.5
[9] = system: Nc1nc2c(ncn2[C@@H]2O[C@H](COP(=O)(O)OP(=O)(O)OP(=O)(O)O)[C@@H](O)[C@H]2O)c(=O)[nH]1; test: PK/LDH-coupled continuous assay; format: biochemical, Bacillus subtilis; settings: 100 uM telithromycin, 10 mM MgCl2, 40 mM KCl, pH 7.5
[10] = system: CC[C@H]1OC(=O)[C@H](C)[C@@H](O[C@H]2C[C@@](C)(OC)[C@@H](O)[C@H](C)O2)[C@H](C)[C@@H](O[C@@H]2O[C@H](C)C[C@H](N(C)C)[C@H]2O)[C@](C)(O)C[C@@H](C)CN(C)[C@H](C)[C@@H](O)[C@]1(C)O; test: PK/LDH-coupled continuous assay; format: biochemical, Bacillus subtilis; settings: 200 uM GTP, 10 mM MgCl2, 40 mM KCl, pH 7.5

CC[C@H]1OC(=O)[C@H](C)[C@@H](O[C@H]2C[C@@](C)(OC)[C@@H](O)[C@H](C)O2)[C@H](C)[C@@H](O[C@@H]2O[C@H](C)C[C@H](N(C)C)[C@H]2O)[C@](C)(O)C[C@@H](C)CN(C)[C@H](C)[C@@H](O)[C@]1(C)O [azithromycin]
X-ray crystal structure (MphH; macrolide-binding cleft, 5 mM azithromycin): MphH (Se-Met) azithromycin complex (5UXD)
Km (MphI; 200 uM GTP): 56 ± 3 µM
MIC [1]: 0.063 µg/mL (≈ 0.0841 µM)

NC[C@H]1O[C@H](O[C@H]2[C@H](O)[C@@H](O[C@H]3O[C@H](CO)[C@@H](O)[C@H](N)[C@H]3O)[C@H](N)C[C@@H]2N)[C@H](O)[C@@H](O)[C@@H]1O [Kanamycin]
MIC [1]: 1 µg/mL (≈ 2.06 µM)

CC[C@H]1OC(=O)[C@H](C)[C@@H](O[C@H]2C[C@@](C)(OC)[C@@H](O)[C@H](C)O2)[C@H](C)[C@@H](O[C@@H]2O[C@H](C)C[C@H](N(C)C)[C@H]2O)[C@](C)(O)C[C@@H](C)/C(=N\OCOCCOC)[C@H](C)[C@@H](O)[C@]1(C)O [roxithromycin]
Ki (MphB): 960 ± 510 µM
Km (MphI; 200 uM GTP): 32 ± 4 µM

Nc1nc2c(ncn2[C@@H]2O[C@H](COP(=O)(O)OP(=O)(O)O)[C@@H](O)[C@H]2O)c(=O)[nH]1 [GDP]
X-ray crystal structure (MphH; nucleotide site, GDP + Pi, crystallized with 5 mM azithromycin and 5 mM GMPPCP): MphH (native) GDP + Pi complex (5UXC)

CC[C@H]1OC(=O)[C@H](C)[C@@H](O[C@H]2C[C@@](C)(OC)[C@@H](O)[C@H](C)O2)[C@H](C)[C@@H](O[C@@H]2O[C@H](C)C[C@H](N(C)C)[C@H]2O)[C@](C)(O)C[C@@H](C)C(=O)[C@H](C)[C@@H](O)[C@]1(C)O [erythromycin]
Km (MphI; 200 uM GTP): 110 ± 10 µM
MIC [1]: 0.5 µg/mL (≈ 0.681 µM)

CC[C@H]1OC(=O)[C@H](C)[C@@H](O[C@H]2C[C@@](C)(OC)[C@@H](O)[C@H](C)O2)[C@H](C)[C@@H](O[C@@H]2O[C@H](C)C[C@H](N(C)C)[C@H]2O)[C@](C)(OC)C[C@@H](C)C(=O)[C@H](C)[C@@H](O)[C@]1(C)O [Clarithromycin]
MIC [1]: 0.5 µg/mL (≈ 0.668 µM)

Nc1nc2c(ncn2[C@@H]2O[C@H](COP(=O)(O)OP(=O)(O)OP(=O)(O)O)[C@@H](O)[C@H]2O)c(=O)[nH]1 [GTP]
Km (MphI; 100 uM telithromycin): 10 ± 1 µM

CC[C@H]1OC(=O)[C@H](C)C(=O)[C@H](C)[C@@H](O[C@@H]2O[C@H](C)C[C@H](N(C)C)[C@H]2O)[C@](C)(OC)C[C@@H](C)C(=O)[C@H](C)[C@H]2N(CCCCn3cnc(-c4cccnc4)c3)C(=O)O[C@]12C [telithromycin]
Km (MphI; 200 uM GTP): 3 ± 0.5 µM
MIC [1]: 0.125 µg/mL (≈ 0.154 µM)

CC[C@H]1OC(=O)C[C@@H](O)[C@H](C)[C@@H](O[C@@H]2O[C@H](C)[C@@H](O[C@H]3C[C@@](C)(O)[C@@H](O)[C@H](C)O3)[C@H](N(C)C)[C@H]2O)[C@@H](CC=O)C[C@@H](C)C(=O)/C=C/C(C)=C/[C@@H]1CO[C@@H]1O[C@H](C)[C@@H](O)[C@@H](OC)[C@H]1OC [Tylosin]
Ki (MphB): 350 ± 160 µM
MIC [1]: 2 µg/mL (≈ 2.18 µM)

MphB (Escherichia coli O83:H1 str. NRG 857C)
Km [2]: 6.6 ± 1.8 µM
kcat [2]: 0.77 ± 0.04 s⁻¹
Km [3]: 8.3 ± 0.45 µM
kcat [3]: 0.602 ± 0.008 s⁻¹
Km [4]: 2.9 ± 0.36 µM
kcat [4]: 0.189 ± 0.004 s⁻¹
Km [5]: 1.6 ± 0.2 µM
kcat [5]: 0.0412 ± 0.0009 s⁻¹

MphK (Bacillus subtilis subsp. subtilis str. 168)
Km [6]: 6.3 ± 2.4 µM
kcat [6]: 0.0022 ± 0.0002 s⁻¹
kcat/Km [6]: 350 M⁻¹ s⁻¹
Km [7]: 100 ± 25 µM
kcat [7]: 0.005 ± 0.0004 s⁻¹
kcat/Km [7]: 49 M⁻¹ s⁻¹
Km [8]: 4.2 ± 0.45 µM
kcat [8]: 0.056 ± 0.001 s⁻¹
Km [9]: 17 ± 1 µM
kcat [9]: 0.0491 ± 0.0004 s⁻¹
Km [10]: 940 ± 320 µM
kcat [10]: 0.025 ± 0.005 s⁻¹
